Measured values as given in publication PMC11367481 (eBioMedicine, 2024).

Target: ACE2-Fc, recombinant protein (Sino Biological 10108-H02H) (human, UniProt Q9BYF1)
Experiment: BLI

B1: BTN3A2-L-His, recombinant protein (Sino Biological 13515-H08H) (natural protein)
chain: not shown
Kd: 92.7 ± 0.359 nM
